The text below walks through data of US20240417458A1 (DISC MEDICINE, published 2024).

Assay [1] has as its target T1, soluble human RGMc (human, UniProt Q6ZVN8 36-400).
T1 construct: also called huRGMc; soluble hRGMc
T1 sequence: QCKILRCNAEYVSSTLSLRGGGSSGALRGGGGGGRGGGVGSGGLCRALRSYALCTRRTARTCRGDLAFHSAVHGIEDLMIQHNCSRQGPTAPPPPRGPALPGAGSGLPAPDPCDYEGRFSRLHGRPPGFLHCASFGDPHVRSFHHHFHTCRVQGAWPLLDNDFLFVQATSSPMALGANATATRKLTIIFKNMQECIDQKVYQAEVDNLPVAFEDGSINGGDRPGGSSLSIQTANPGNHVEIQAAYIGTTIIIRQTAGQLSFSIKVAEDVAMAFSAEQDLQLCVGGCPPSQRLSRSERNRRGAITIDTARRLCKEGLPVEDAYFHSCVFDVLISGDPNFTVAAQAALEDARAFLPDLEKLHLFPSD
Description: SPR (BIAcore). In general terms: SPR reads the build-up and loss of mass on a sensor chip optically.
Description: (§1) Binding affinities of the anti-HJV antibodies to soluble human RGMa, Rat RGMa and human RGMc were measured by BIAcore analysis.

A further assay addresses T2, soluble rat RGMa (rat, UniProt D4A188 48-421).
T2 construct: Soluble antigen in BIAcore
T2 sequence: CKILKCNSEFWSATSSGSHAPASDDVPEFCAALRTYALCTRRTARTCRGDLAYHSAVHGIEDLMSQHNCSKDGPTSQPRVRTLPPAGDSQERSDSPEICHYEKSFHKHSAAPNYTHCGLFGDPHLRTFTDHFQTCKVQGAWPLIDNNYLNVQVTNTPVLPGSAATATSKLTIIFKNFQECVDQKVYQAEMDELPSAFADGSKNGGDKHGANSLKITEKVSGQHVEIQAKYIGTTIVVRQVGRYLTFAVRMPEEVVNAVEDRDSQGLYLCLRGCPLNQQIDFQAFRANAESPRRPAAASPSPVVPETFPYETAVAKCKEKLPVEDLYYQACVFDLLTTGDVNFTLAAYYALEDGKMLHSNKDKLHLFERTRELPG
In words: SPR (BIAcore).

Assay [2] concerns the target T3, membrane-bound human RGMc (human, UniProt Q6ZVN8 36-400).
T3 sequence: T1 sequence
In words: cell-based or functional assay.

Assay [3] has as its target T3, membrane-bound human RGMc. Description: cell-based or functional assay. The source holds these as a separate data set.
Assay [4] addresses T4, membrane-bound human RGMa (human, UniProt Q96B86 169-424).
T4 sequence (looked up): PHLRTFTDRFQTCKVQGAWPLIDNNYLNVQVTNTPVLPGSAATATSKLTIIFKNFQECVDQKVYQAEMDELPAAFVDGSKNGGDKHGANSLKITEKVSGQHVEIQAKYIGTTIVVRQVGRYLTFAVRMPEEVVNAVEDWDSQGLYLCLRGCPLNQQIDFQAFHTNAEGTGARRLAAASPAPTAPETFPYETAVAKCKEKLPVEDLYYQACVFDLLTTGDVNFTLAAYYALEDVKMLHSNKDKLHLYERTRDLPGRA
Description: cell-based or functional assay.

In assay [5] the target is T4, membrane-bound human RGMa. Description: cell-based or functional assay. The source holds these as a separate data set.
The target in assay [6] is T5, soluble human RGMa (human, UniProt Q96B86 48-422, limits assumed).
T5 construct: Soluble antigen in BIAcore; also called huRGMa; repulsive guidance molecule A
T5 sequence (looked up): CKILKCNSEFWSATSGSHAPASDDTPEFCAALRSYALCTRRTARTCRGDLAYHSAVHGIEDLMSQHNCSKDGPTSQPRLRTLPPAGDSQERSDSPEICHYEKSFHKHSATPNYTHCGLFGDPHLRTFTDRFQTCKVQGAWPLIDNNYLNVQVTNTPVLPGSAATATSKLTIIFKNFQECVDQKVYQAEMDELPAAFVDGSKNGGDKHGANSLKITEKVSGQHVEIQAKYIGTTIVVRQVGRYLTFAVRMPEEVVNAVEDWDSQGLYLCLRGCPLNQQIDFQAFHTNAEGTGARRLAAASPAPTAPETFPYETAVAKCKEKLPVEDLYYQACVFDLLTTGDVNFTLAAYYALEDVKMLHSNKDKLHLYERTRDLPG
Description: SPR (BIAcore).
Description: as §1

The target of assay [7] is T3, membrane-bound human RGMc. In words: cell-based or functional assay. The source holds these as a separate data set.
Assay [8] concerns the target T4, membrane-bound human RGMa. Description: cell-based or functional assay. The source holds these as a separate data set.
Assay [9] deals with T1, soluble human RGMc. Description: SPR (BIAcore), soluble hRGMc; summary table.
In a further assay the target is T6, FcRn.
T6 construct: also called neonatal Fc receptor
T6 sequence (P55899 24-297, chain 1 of 2): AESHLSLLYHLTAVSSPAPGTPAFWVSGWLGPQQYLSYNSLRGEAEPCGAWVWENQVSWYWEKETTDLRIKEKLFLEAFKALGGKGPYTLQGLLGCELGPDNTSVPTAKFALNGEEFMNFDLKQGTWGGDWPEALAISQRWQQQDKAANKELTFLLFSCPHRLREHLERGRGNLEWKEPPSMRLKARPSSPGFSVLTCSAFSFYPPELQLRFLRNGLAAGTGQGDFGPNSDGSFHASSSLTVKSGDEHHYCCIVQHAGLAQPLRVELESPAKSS
T6 sequence (P61769 21-119, chain 2 of 2, further chain): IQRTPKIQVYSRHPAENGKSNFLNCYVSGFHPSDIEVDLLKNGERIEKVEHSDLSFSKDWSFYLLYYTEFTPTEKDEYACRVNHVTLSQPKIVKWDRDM
In words: SPR (BIAcore) at pH 6.0.

Assay [10] concerns the target T5, soluble human RGMa. Description: SPR; method not named in Example 2.
Assay [11] addresses T1, soluble human RGMc. Description: SPR; method not named in Example 2.

Residue numbers refer to the chain shown, from its start. In names and notes the source's numbering stands. Several values for one entry are separate records, joined by “and”; a condition that tells them apart may be missing. Equal values may be shown once. Where only a bound is given, the exact number is not on record here.

Description for soluble rat RGMa: as §1

B1: hHA-004 (antibody, human IgG1, kappa, L234A L235A, V domains shown)
VH: EVQLVESGGGLVQPGGSLRLSCAASGFTFSNYGMNWIRQAPGKGLEWIGMIYYDSSEKHYADSVKGRFTISRDNSKNTLYLQMNSLRAEDTAVYYCAKGTTPDYWGQGTMVTVSS
VL: DVVLTQSPLSLPVTLGQPASISCRSSQSLESSDGDTFLEWFQQRPGQSPRLLIYDVSTRFSGVPDRFSGSGSGTDFTLKISRVEAEDVGVYYCFQVTHDPVTFGQGTKLEIKR
notes: hIgG1 L234A, L235A, kappa
As to B1, the Kd – broadly, a measure of binding affinity in units of concentration – with soluble human RGMc [1] was 0.13 nM; with soluble rat RGMa, under 0.00094 nM; with soluble human RGMa [6], 0.015 nM; in the assay with soluble human RGMc [9] it was 0.13 nM. In addition, the koff (usually the rate constant with which the complex falls apart) with soluble human RGMc [1] is 0.00104 s⁻¹; with soluble rat RGMa, under 1e-06 s⁻¹; with soluble human RGMa [6] it was 2.2e-05 s⁻¹; with soluble human RGMc [9], 0.00104 s⁻¹. Further, the kon (usually a measure of how fast the partners come together) with soluble human RGMc [1] was 7.85e+06 M⁻¹ s⁻¹; in the assay with soluble rat RGMa it was 1.1e+06 M⁻¹ s⁻¹; in the assay with soluble human RGMa [6], 1.4e+06 M⁻¹ s⁻¹; with soluble human RGMc [9] it was 7.85e+06 M⁻¹ s⁻¹. The “IC50 (read off the curve)” value was about 0.3 nM in assay [2] and about 2 nM in assay [8]. The “Potency on membrane hRGMc (RGMc/BMP reporter assay), IC50” value in [3] is 0.31 nM. Also, the “Potency on membrane hRGMa (RGMa/BMP reporter assay), IC50” value in assay [4] is 2 nM. For the same molecule, in assay [5], the “IC50 (nM), BMP reporter assay for RGMa” value turned out to be 2.01 nM. For the same molecule, the “IC50 (nM), BMP reporter assay for RGMc (BRE-Luc, HEK293)” value in [7] was found to be 0.312 nM.

B2: hHA-008-QL (antibody, human IgG1, kappa, L234A L235A)
heavy: EVQLVESGGGLVQPGGSLRLSCAASGFTFSNYGMNWVRQAPGKGLEWIGMIYYDSSEKHYADSVKGRFTISRDNSKNTLYLQMNSLRAEDTAVYYCAKGTTPDYWGQGTMVTVSSASTKGPSVFPLAPSSKSTSGGTAALGCLVKDYFPEPVTVSWNSGALTSGVHTFPAVLQSSGLYSLSSVVTVPSSSLGTQTYICNVNHKPSNTKVDKKVEPKSCDKTHTCPPCPAPEAAGGPSVFLFPPKPKDQLMISRTPEVTCVVVDVSHEDPEVKFNWYVDGVEVHNAKTKPREEQYNSTYRVVSVLTVLHQDWLNGKEYKCKVSNKALPAPIEKTISKAKGQPREPQVYTLPPSREEMTKNQVSLTCLVKGFYPSDIAVEWESNGQPENNYKTTPPVLDSDGSFFLYSKLTVDKSRWQQGNVFSCSVLHEALHNHYTQKSLSLSPGK
light: DVVLTQSPLSLPVTLGQPASISCRSSQSLEESDGYTFLHWFQQRPGQSPRLLIYEVSTRFSGVPDRFSGSGSGTDFTLKISRVEAEDVGVYYCFQATHDPLTFGQGTKLEIKRTVAAPSVFIFPPSDEQLKSGTASVVCLLNNFYPREAKVQWKVDNALQSGNSQESVTEQDSKDSTYSLSSTLTLSKADYEKHKVYACEVTHQGLSSPVTKSFNRGEC
notes: hHA-008 with T250Q and M428L (QL) in the Fc besides L234A, L235A; kappa; also called hHA-008-QL (hIgG1mut(LALA)/QL/k)
For B2, the Kd with FcRn was 900 nM and 882 nM. In the assay with soluble human RGMa [10], this molecule had a Kd of 0.077 nM, a koff of 3.3e-05 s⁻¹ and a kon of 430000 M⁻¹ s⁻¹. In addition, in the assay with soluble human RGMc [11], binding was put at a Kd of 0.12 nM, the koff was determined as 0.00033 s⁻¹ and the kon was 2.7e+06 M⁻¹ s⁻¹.

B3: hHA-011 (antibody, human IgG1, kappa, L234A L235A, V domains shown)
VH: B1 VH with I37V, T100S
VL: B1 VL with S31D, D35G, T58S, V96A, V101L, T102S
notes: hIgG1 L234A, L235A, kappa
On to B3, for which the Kd in the assay with soluble human RGMc [1] stood at 0.285 nM; in the assay with soluble rat RGMa, 0.074 nM; with soluble human RGMa [6], 0.11 nM; with soluble human RGMc [9] it was 0.285 nM. For the same molecule, the koff came to 0.0014 s⁻¹ in the assay with soluble human RGMc [1], 5.2e-05 s⁻¹ with soluble rat RGMa, 9.9e-05 s⁻¹ with soluble human RGMa [6] and 0.0014 s⁻¹ in the assay with soluble human RGMc [9]. Moreover, the kon in the assay with soluble human RGMc [1] was determined as 5.05e+06 M⁻¹ s⁻¹; with soluble rat RGMa it was 700000 M⁻¹ s⁻¹; in the assay with soluble human RGMa [6] it was 930000 M⁻¹ s⁻¹; with soluble human RGMc [9], 5.05e+06 M⁻¹ s⁻¹. Besides, the results for the “IC50 (read off the curve)” value in assay [2] and in [8] were about 0.5 nM and about 2 nM, respectively. Also, the “Potency on membrane hRGMc (RGMc/BMP reporter assay), IC50” value in [3] is 0.52 nM. For the same molecule, the “Potency on membrane hRGMa (RGMa/BMP reporter assay), IC50” value in assay [4] was determined as 1.7 nM. Moreover, the “IC50 (nM), BMP reporter assay for RGMa” value in [5] is 1.66 nM. The “IC50 (nM), BMP reporter assay for RGMc (BRE-Luc, HEK293)” value in assay [7] amounted to 0.0554 nM.
